According to ChEMBL document CHEMBL1148676, “Fluorogenic ester substrates to assess proteolytic activity” (Bioorg Med Chem Lett, 2006):
Values belong to the compound of their own block, whether it stands above or below them. Active and inactive are the calls of the source. No cut-off for these calls is given here.

Tests used:
[1] = biological target: Cathepsin B (Homo sapiens) (UniProt P07858); test: (§1) Affinity to cathepsin B
[2] = test system: CC[C@H](NC(=O)OC(C)(C)C)C(=O)Oc1ccc2c(c1)Oc1cc(OC)ccc1C21OC(=O)c2ccccc21; test: as §1; conditions: Homo sapiens
[3] = test system: CC[C@H](NC(=O)OCC1c2ccccc2-c2ccccc21)C(=O)Oc1ccc2c(c1)Oc1cc(OC)ccc1C21OC(=O)c2ccccc21; test: as §1; conditions: Homo sapiens
[4] = test system: COc1ccc2c(c1)Oc1cc(OC(=O)CNC(=O)OCC3c4ccccc4-c4ccccc43)ccc1C21OC(=O)c2ccccc21; test: as §1; conditions: Homo sapiens
[5] = test system: COc1ccc2c(c1)Oc1cc(OC(=O)[C@H](C)NC(=O)OC(C)(C)C)ccc1C21OC(=O)c2ccccc21; test: as §1; conditions: Homo sapiens
[6] = test system: COc1ccc2c(c1)Oc1cc(OC(=O)[C@H](C)NC(=O)OCC3c4ccccc4-c4ccccc43)ccc1C21OC(=O)c2ccccc21; test: as §1; conditions: Homo sapiens
[7] = test system: COc1ccc2c(c1)Oc1cc(OC(=O)[C@H](CC(C)C)NC(=O)OC(C)(C)C)ccc1C21OC(=O)c2ccccc21; test: as §1; conditions: Homo sapiens

Activity [1]: inactive
Compound: COc1ccc2c(c1)Oc1cc(OC(C)=O)ccc1C21OC(=O)c2ccccc21 (centres undefined)

Activity [1]: inactive
Compound: COc1ccc2c(c1)Oc1cc(OS(=O)(=O)c3ccc(C)cc3)ccc1C21OC(=O)c2ccccc21 (centres undefined)

Activity [1]: inactive
Compound: COc1ccc2c(c1)Oc1cc(OS(=O)(=O)c3ccc([N+](=O)[O-])cc3)ccc1C21OC(=O)c2ccccc21 (centres undefined)

Compound: Cathepsin B (Homo sapiens) (from UniProt P07858)
Km [2]: 2.2 µM
Km [3]: 7.2 µM
Km [4]: 7.9 µM
Km [5]: 4.5 µM
Km [6]: 7.6 µM
Km [7]: 2.7 µM
